Patent publication US6538103B1, “Lysine binding fragments of angiostatin” (Bristol--Myers Squibb Company, priority 1998, dated 2003)

How the values were obtained:
[1] = tested on: Bovine capillary endothelial (BCE) cells; test: Endothelial cell migration assay (Boyden chamber, bFGF-stimulated); format: cell-based; settings: bFGF 10 ng/ml, 4 hours migration; read-out: IC50 of inhibition of bFGF-induced BCE cell migration
Method: Bovine capillary endothelial (BCE) cells were harvested from bovine adrenal glands as previously described (33). BCE cells were maintained in DMEM in the presence of 10% bovine calf serum, 1% antibiotics, and 3 ng/ml of bFGF (PeproTech, Rockhill, N.J.). To evaluate endothelial cell migration, a Boyden Chamber-based assay was performed. First, the polycarbonate membranes with […] (Neuro Probe Inc., Cabin John, Md.) were coated with […] of collagen type I following manufacturer's instructions (Becton Dickinson, Bedford, Mass.). […] Each sample was tested in quadruplicate and a representative field in each well was counted at 10 x magnification to determine the number of migrated cells.
Fifty micrograms of the recombinant angiostatin in […] of serum-free DMEM was reduced by incubating with […] of 0.5 M dithiothreitol for 15 minutes at the room temperature. […] The homogeneity of the reduced and alkylated angiostatin was analyzed by SDS-PAGE before being examined for its inhibition on BCE cell migration. The endotoxin concentrations of both native and reduced/alkylated angiostatin were evaluated according to manufacturer's instructions (Associates of Cape Cod, Woods Hole, Mass.). […]

[2] = tested on: endothelial cell proliferation; settings: previously described / reported; cited from earlier work

Molecule	IC50 [1]	effect on endothelial cell proliferation (in words) [2]
Angiostatin	~0.05 µM	
K4: recombinant plasminogen kringle region 4, expressed in Pichia pastoris (protein, human, recombinant plasminogen kringle region 4, expressed in Pichia pastoris) VQDCYHGDGQSYRGTSSTTTTGKKCQSWSSMTPHRHQKTPENYPNAGLTMNYCRNPDADKGPWCFTTDPSVRWEYCNLKKCSGT	0.5 µM	negligible effect on endothelial cell proliferation
